Here are results for 6 molecules from PMC9688318, “Construction of a Versatile, Programmable RNA-Binding Protein Using Designer PPR Proteins and Its Application for Splicing Control in Mammalian Cells”.

Data set [1] addresses T1, PPR2.0 t8 (synthetic).
T1 chain: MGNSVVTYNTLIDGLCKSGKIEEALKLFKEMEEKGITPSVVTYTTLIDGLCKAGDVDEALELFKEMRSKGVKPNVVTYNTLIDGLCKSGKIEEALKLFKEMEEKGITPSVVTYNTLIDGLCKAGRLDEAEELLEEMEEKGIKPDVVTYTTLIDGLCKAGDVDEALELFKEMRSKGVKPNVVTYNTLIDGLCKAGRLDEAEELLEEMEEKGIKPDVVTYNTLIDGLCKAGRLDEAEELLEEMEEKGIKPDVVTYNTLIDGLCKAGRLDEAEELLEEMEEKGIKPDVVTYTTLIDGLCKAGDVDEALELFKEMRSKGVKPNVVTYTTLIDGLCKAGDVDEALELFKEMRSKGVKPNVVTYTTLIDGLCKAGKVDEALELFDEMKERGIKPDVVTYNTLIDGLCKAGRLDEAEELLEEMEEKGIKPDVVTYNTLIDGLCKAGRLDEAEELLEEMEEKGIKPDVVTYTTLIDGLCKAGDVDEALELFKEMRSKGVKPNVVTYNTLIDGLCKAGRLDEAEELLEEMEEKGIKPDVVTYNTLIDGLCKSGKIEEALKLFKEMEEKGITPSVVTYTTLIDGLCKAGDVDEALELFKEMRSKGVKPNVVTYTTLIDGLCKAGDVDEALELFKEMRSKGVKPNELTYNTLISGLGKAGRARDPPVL
As to the kind of experiment: 20 mM Tris-HCl pH 8.0, 150 mM NaCl, 0.5% NP-40, 1 mM DTT. The note with it: tags: N-terminal NanoLuc, C-terminal His6, kept; label: biotin.

Data set [2] addresses T1, PPR2.0 t8. As to the kind of experiment: EMSA; 20 mM Tris-HCl pH 8.0, 150 mM NaCl, 0.5% NP-40, 1 mM DTT, 1 mM EDTA; 20 nM RNA. As to conditions: tags: N-terminal SBP, C-terminal His6, kept; label: biotin.
The target of data set [3] is T2, PPR2.0 t11 (synthetic).
T2 chain: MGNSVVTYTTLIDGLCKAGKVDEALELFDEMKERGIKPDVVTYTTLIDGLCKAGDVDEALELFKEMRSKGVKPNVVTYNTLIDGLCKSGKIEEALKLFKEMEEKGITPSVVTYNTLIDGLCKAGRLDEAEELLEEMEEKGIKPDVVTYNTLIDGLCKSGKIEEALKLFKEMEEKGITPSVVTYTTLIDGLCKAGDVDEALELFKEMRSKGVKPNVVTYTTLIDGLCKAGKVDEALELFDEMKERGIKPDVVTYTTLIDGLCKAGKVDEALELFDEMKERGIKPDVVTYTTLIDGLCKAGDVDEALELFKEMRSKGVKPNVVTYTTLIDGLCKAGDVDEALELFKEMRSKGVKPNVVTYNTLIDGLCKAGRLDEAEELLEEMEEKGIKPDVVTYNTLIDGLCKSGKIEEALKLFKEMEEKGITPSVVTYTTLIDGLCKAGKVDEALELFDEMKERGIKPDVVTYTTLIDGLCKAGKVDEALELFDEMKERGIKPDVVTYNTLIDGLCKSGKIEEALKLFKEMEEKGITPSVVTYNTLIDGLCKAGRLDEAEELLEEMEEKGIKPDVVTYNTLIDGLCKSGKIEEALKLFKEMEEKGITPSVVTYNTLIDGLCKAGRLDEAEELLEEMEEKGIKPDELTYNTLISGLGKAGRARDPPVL
Put plainly: 20 mM Tris-HCl pH 8.0, 150 mM NaCl, 0.5% NP-40, 1 mM DTT. The note with it: tags: N-terminal NanoLuc, C-terminal His6, kept; label: biotin.

The target in data set [4] is T2, PPR2.0 t11. Put plainly: EMSA; 20 mM Tris-HCl pH 8.0, 150 mM NaCl, 0.5% NP-40, 1 mM DTT, 1 mM EDTA; 20 nM RNA. The note with it: tags: N-terminal SBP, C-terminal His6, kept; label: biotin. (In general: Mobility shift assays separate free from complexed probe on a gel.)
Data set [5] deals with T3, PPR2.0 t14 (synthetic).
T3 chain: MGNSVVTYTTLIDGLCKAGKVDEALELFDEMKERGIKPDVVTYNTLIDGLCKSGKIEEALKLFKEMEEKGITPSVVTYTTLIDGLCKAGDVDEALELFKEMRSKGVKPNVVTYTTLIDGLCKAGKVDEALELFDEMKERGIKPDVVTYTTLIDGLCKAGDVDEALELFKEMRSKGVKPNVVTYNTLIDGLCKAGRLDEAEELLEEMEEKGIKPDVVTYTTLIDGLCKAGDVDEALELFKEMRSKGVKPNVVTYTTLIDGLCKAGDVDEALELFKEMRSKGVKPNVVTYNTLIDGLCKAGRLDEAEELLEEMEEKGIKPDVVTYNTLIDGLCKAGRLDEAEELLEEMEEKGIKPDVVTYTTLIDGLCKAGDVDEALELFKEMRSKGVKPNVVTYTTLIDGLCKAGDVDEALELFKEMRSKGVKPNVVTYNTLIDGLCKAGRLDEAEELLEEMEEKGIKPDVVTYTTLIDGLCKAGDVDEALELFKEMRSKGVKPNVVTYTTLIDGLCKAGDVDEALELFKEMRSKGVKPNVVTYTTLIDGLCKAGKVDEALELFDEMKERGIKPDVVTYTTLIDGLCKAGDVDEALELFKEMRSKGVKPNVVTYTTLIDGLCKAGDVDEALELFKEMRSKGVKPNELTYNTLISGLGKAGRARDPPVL
Put plainly: 20 mM Tris-HCl pH 8.0, 150 mM NaCl, 0.5% NP-40, 1 mM DTT. As to conditions: tags: N-terminal NanoLuc, C-terminal His6, kept; label: biotin.

Data set [6] concerns the target T3, PPR2.0 t14. Put plainly: EMSA; 20 mM Tris-HCl pH 8.0, 150 mM NaCl, 0.5% NP-40, 1 mM DTT, 1 mM EDTA; 20 nM RNA. As to conditions: tags: N-terminal SBP, C-terminal His6, kept; label: biotin.
The target of data set [7] is T4, PPR2.0 t5 (synthetic).
T4 chain: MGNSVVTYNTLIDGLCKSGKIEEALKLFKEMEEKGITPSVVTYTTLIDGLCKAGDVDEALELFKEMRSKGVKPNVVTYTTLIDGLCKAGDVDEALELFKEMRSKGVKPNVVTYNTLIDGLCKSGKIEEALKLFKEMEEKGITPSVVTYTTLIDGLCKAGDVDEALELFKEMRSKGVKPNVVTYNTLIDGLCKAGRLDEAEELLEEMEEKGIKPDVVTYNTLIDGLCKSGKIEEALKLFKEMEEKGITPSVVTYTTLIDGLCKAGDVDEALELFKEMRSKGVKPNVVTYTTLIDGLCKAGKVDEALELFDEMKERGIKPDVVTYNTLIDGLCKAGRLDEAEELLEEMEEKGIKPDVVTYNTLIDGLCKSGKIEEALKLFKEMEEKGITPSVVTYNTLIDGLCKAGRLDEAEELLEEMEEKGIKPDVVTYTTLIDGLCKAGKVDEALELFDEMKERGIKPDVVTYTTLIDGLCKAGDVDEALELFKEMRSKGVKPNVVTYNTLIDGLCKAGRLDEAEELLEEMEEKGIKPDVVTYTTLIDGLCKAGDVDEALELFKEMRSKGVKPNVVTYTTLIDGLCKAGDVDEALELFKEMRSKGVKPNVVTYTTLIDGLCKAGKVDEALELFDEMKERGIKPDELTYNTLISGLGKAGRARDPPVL
Put plainly: 20 mM Tris-HCl pH 8.0, 150 mM NaCl, 0.5% NP-40, 1 mM DTT. As to conditions: tags: N-terminal NanoLuc, C-terminal His6, kept; label: biotin.

Data set [8] deals with T4, PPR2.0 t5. Put plainly: EMSA; 20 mM Tris-HCl pH 8.0, 150 mM NaCl, 0.5% NP-40, 1 mM DTT, 1 mM EDTA; 20 nM RNA. The note with it: tags: N-terminal SBP, C-terminal His6, kept; label: biotin.
Data set [9] deals with T5, PPR2.0 t4 (synthetic).
T5 chain: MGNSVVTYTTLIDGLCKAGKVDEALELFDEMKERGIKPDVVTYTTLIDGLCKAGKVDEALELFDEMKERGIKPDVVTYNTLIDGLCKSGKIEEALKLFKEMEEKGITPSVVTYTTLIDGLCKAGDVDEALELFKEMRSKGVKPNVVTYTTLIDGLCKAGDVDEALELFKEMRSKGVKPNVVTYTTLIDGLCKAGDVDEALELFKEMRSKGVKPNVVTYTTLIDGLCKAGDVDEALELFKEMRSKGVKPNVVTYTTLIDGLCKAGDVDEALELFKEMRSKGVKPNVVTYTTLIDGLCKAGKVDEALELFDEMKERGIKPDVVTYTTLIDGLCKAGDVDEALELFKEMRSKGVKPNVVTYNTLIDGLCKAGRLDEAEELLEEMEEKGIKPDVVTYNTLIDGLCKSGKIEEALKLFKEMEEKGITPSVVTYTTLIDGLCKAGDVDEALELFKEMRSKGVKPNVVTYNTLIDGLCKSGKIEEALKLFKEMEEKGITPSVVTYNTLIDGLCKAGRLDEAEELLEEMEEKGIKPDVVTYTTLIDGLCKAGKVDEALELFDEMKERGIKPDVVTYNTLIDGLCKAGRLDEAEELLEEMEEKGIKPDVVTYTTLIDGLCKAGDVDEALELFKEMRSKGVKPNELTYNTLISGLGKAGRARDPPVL
Put plainly: 20 mM Tris-HCl pH 8.0, 150 mM NaCl, 0.5% NP-40, 1 mM DTT. As to conditions: tags: N-terminal NanoLuc, C-terminal His6, kept; label: biotin.

Data set [10] has as its target T5, PPR2.0 t4. As to the kind of experiment: EMSA; 20 mM Tris-HCl pH 8.0, 150 mM NaCl, 0.5% NP-40, 1 mM DTT, 1 mM EDTA; 20 nM RNA. The note with it: tags: N-terminal SBP, C-terminal His6, kept; label: biotin.
The target of data set [11] is T6, PPR2.0 t15 (synthetic).
T6 chain: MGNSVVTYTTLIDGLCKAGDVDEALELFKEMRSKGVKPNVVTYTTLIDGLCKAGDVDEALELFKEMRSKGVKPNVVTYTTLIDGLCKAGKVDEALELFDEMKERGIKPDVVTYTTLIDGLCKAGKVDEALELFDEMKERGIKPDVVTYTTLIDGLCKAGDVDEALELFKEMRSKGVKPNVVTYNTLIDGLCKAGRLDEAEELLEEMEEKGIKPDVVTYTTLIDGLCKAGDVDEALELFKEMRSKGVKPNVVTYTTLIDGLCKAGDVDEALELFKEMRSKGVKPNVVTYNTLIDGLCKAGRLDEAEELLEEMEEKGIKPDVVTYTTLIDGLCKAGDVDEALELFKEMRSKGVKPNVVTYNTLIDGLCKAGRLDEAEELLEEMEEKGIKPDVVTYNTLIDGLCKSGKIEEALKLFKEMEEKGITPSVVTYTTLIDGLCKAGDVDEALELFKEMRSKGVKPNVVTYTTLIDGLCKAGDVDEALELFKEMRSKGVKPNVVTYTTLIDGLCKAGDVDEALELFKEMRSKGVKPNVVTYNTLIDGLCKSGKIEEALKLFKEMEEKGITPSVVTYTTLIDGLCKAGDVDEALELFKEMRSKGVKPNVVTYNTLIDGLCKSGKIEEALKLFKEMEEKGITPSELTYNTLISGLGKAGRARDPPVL
Put plainly: 20 mM Tris-HCl pH 8.0, 150 mM NaCl, 0.5% NP-40, 1 mM DTT. As to conditions: tags: N-terminal NanoLuc, C-terminal His6, kept; label: biotin.

Data set [12] concerns the target T6, PPR2.0 t15. As to the kind of experiment: EMSA; 20 mM Tris-HCl pH 8.0, 150 mM NaCl, 0.5% NP-40, 1 mM DTT, 1 mM EDTA; 20 nM RNA. As to conditions: tags: N-terminal SBP, C-terminal His6, kept; label: biotin.

In general, Kd refers to the constant that tells how readily two partners part at equilibrium. Regarding GACAUGCCACUAUUUAAGUUAUCAAGACUG (ssRNA) [Probe_t8], the binding signal in [1] was 4.7e+07 RBP-ELISA luminescence, CPS. This molecule also came in with a Kd in [2] of 1.95 nM.

Regarding GACAUGCGACUCAGGAAUCGGCUCUGACUG (ssRNA) [Probe_t11], in data set [3], the binding signal was 3.78e+07 RBP-ELISA luminescence, CPS. The molecule also showed a Kd in data set [4] of 63.3 nM.

Consider GACAUGCGCAGAUAAUUAAUAAGAAGACUG (ssRNA) [Probe_t14], for which the binding signal in data set [5] was 1.33e+07 RBP-ELISA luminescence, CPS. The Kd in data set [6] stood at 197 nM.

As for GACAUGCCAACAUCAGUCUGAUAAGGACUG (ssRNA) [Probe_t5], in data set [7], the binding signal was 1.67e+07 RBP-ELISA luminescence, CPS. For the same molecule, the Kd in data set [8] was found to be 167 nM.

For GACAUGCGGCAAAAAGAUCACUGUAGACUG (ssRNA) [Probe_t4], the binding signal in data set [9] is 5.98e+07 RBP-ELISA luminescence, CPS. Binding in data set [10] was put at a Kd of 2.57 nM.

In the case of GACAUGCAAGGAUAAUAUCAAACACGACUG (ssRNA) [Probe_t15], the binding signal in data set [11] is 2.84e+07 RBP-ELISA luminescence, CPS. The Kd in data set [12] turned out to be 41 nM.
